Experimental data reported in publication PMC4827770 (Journal of molecular recognition : JMR, 2008).
Read-outs that look alike come from different tables or passages of the source.

T1: murine JAM-A on L929 (L) cells (murine (endogenous in L929 cells), UniProt O88792 27-300)
T1 sequence (looked up): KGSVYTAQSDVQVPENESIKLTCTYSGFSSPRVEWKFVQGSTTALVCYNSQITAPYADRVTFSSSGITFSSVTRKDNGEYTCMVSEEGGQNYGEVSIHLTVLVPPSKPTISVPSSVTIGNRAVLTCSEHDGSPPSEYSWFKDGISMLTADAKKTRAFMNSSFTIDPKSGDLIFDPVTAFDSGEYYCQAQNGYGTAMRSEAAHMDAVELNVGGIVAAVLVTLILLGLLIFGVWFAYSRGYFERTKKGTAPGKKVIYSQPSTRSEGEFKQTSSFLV


Legend:
[1] = molecular target: T1, murine JAM-A on L929 (L) cells; assay: single molecule force spectroscopy
[2] = molecular target: T1, murine JAM-A on L929 (L) cells; assay: single molecule force spectroscopy; remark: listed apart in the source

Binder	koff [1] [s⁻¹]	koff [2] [s⁻¹]
reovirus attachment protein σ1 head domain plus a short region of the tail (residues 293–455) (domain or fragment) SPNLRYPIADVSGGIGMSPNYRFRQSMWIGIVSYSGSGLNWRVQVNSDIFIVDDYIHICLPAFDGFSIADGGDLSLNFVTGLLPPLLTGDTEPAFHNDVVTYGAQTVAIGLSSGGAPQYMSKNLWVEQWQDGVLRLRVEGGGSITHSNSKWPAMTVSYPRSFT	0.067 ± 0.041	
chimeric murine JAM-A/Fc fusion protein (Fc fusion) KGSVYTAQSDVQVPENESIKLTCTYSGFSSPRVEWKFVQGSTTALVCYNSQITAPYADRVTFSSSGITFSSVTRKDNGEYTCMVSEEGGQNYGEVSIHLTVLVPPSKPTISVPSSVTIGNRAVLTCSEHDGSPPSEYSWFKDGISMLTADAKKTRAFMNSSFTIDPKSGDLIFDPVTAFDSGEYYCQAQNGYGTAMRSEAAHMDAVELNVGG		0.688 ± 0.349
